In a protein production outcome set (Wang et al. 2014):

Experiment: label from the status in PepcDB records
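Also: failed if final PepcDB status was selected cloned or expressed and not failed if soluble or beyond.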

Sequence	protein production
MKPADLTNADRIALELGHAGRNAIPYLDDDRNADRPFTLNTYRPYGYTPDRPVVVVQHGVLRNGADYRDFWIPAADRHKLLIVAPTFSDEIWPGVESYNNGRAFTAAGNPRHVDGWTYALVARVLANIRAAEIADCEQVYLFGHSAGGQFVHRLMSSQPHAPFHAVTAANPGWYTLPTFEHRFPEGLDGVGLTEDHLARLLAYPMTILAGDQDIATDDPNLPSEPAALRQGPHRYARARHYYEAGQRAAAQRGLPFGWQLQVVPGIGHDGQAMSQVCASLWFDGRMPDAAELARLAGSQSA	not failed
DFELLHKLGGGNYGDVHLASVKDCNFVCALKRLSIKKLADFDIATQLRREIEIAFNTRHKYLLRTYAYFFDETDIYLIMEPCSNGMLYTELNRVKCFAPPTAARYVAQLAEALLYLHQHHILHRDIKPENILLDHNNNIKLADFGWSVHDPDNRRKTSCGTPEYFPPEIVGRQAYDTSADLWCLGIFCYELLVGKTPFVGKDTDQICKNIHSMHFKIPENIPSEAKDLIANLLLRDGSRRLALHRVVNHQFLLKYYYLPNNL	not failed
MGQHEPGAALGRMVRAAWSETLGEDHPDTLAAANRLAGCLVGLRKYAEARDLFADLLPRCERALGWEDPLTLTVVSNLGGCLSALGAHEEARRQCEDIVRRSRLALGPDDPRTLRAASNLAVFLRRLDDHQAALAVWEDTLLRYRRVLGEDHPDTLHAKRDLVALLRAMGEHDRAHAVAGEPLEHHHHHH	failed
MLEVVYIVGAFGSPLLTPPTLAVAGFLIAVLMGLEYGVLWVLTGESLNRELILVISNIVYSIAWSITALPFTPIYYTLQPYFSQPLLIYLYLALFIGSILLGVIPAIMYIRKYLQFNKIQKEFKQLELDYKSINQEYSEINTRLNKAKEEINNVMDKINKAKELHETALRDPDLIVTALDKKPEIPEVIRPNVNYVVAGLGGTGTALLEALIDYLVSKNVIKEDGTNPFLFVAFDTNQASIARLRKKYEYTPVGKLLYTFNNFEALTTANIISHNPWLAGLNVDVIQGSGMKRAIGYASYNTVKEAMMEDILRRLSDLIAKTRTNRIFLIVFTALGGGTGSGSFIHFTKDFISRLGRITGDSEPYVRVSGM	failed
MTKTSSGLKIMFRKIKLEVVRMDLSTIFASLLGLFLSLLTTGVYRYYSKPKIHKTVGVVILNPDKVDAKKIPPNLPEGLRRVTNSLEQELVLKLKKDQQKKAMLLIKISIIGIIISTIGLILGQ	failed
TAANAVASRVGAPLGHDYAVLSLSDRLKPWDVVAQRISAVASADMAFAVYNPASKSRTWQVAAMRDLVLEHRSPDTPVIIGRDVAGAQESVRVVRLADLDPAEIDMRCLLIVGSSMTTVVENEHGTRVFTPRRYPG	failed
MILKTLRNIFITIVVIAIIVIGGLFGLNAYSNQHPNNHSINDWNKLNPLAPTYEYYVKTQKPSKVEVVDKEKDFYIYHYNQTGYTKDGKSKKIEYTASKKLKQNHYLVVREKSHTIQSFEEVKKSKIPTKAKEKL	failed
MTNLGDLEIFARVVSTGSMSAAGRALGFSAAVISKRIKRLEDRLGARLLQRTTRQISLTEAGQGFYDRVLGILAGLEEAEAYASGRSSQVQGTLRISAPTSFGRMHIAPHLTGFMKDHPDLKLHIVLTDDFTDIVAEGFDLAIRIGELSDSSLVARKLAPVRRLLCAAPSYVARHGAPTEIGELAKHICLPAHNNDNWKLEGPDGSLSYRPEGPLVTNSSEIIREAVIAGAGIALRSTWDIGRELREGRLVQVLPQWEGSHKLTLSAVYPSRQFLPAKVRQFIDYLAALYGPVPYWEQ	failed
MKAALHNLGCKVNSYETEAMEQMLIAAGYEIVPFCEDEKADVYVINTCSVTNIADRKSRQMLHKAKKQNPNAIVVAAGCYVQARGDELAADDMVDIVIGNNRKNRLVEIINDYIGNNSNNEAVVDIAKTHEYEELNIYDVCEHTRAYIKVQDGCNQFCSYCIIPYTRGRVRSRRPEDVTAEVRRLVEKGYKEFILAGIHLSSYGIDFEAPCDEAVDYRAANMPGSRLLELIEAVCSVEGVKRLRLGSFEPRILTEAFVKRMAELEPVCPHFHISLQSGCDATLKRMNRRYTADEYEESCKLLRKYFPNAAITTDVIVGFPQETDEEFAITKEYLERIHFYEMHVFKYSRRKGTAADRMDGQVPEPVKTARSAGLLELEKRMSREYRESALGSIQEVLFEEVAGTCDDCGTSVITGHTKTYINVHVKLPADMSLEYINKICNVKLEHLSDDGEWVNGTLCG	failed
MKNYMKLIFGLGLIALVGYWPAAKTPKRVNSLFLQNVEALAGSEHVTNLGCLGDGSVDCPINHIKVEYVVQGFSLGE	failed
MPHLVIEATANLRLETSPGELLEQANAALFASGQFGEADIKSRFVTLEAYRQGTAAVERAYLHACLSILDGRDAATRQALGESLCEVLAGAVAGGGEEGVQVSVEVREMERASYAKRVVARQR	not failed
MKLVKNLEIVESIFGDWDETIIWSCVQGIMGEVFVDSLDQPKSSLAKLGRKSSFGFLAGQPTLFLLEVCSGEDIILVPQHKGWSDLIESTYGQNAHSFKRYATKKDTLFERSRLEKFVTQLPNGFELRAIDEKVYNSCLEKEWSQDLVANYATYQYYKKQGIGYVVYYQGNIIAGASSYSTYKNGIEIEVDTHPDFRRRGLATIVAAQLILTCLDKGIYPSWDAHTRTSLNLSEKLGYEFSHEYIAYEID	failed
MPKLSLIIATFNDAIGLARCLDSIEQQTVRADCEVLVFDNASSDGTVELLQGWSDRLTYWESERDRGIYHAWNKAIARASGDYVAFVGADDYYASPTALQQLLELTVGQPDLVSGRNAYYSPEGKFLRTWGYAWDWQRMRESMILSHPGLLMRRSLFDRIGLFDERFRICGDYDWLLRLPPDLKAVHTNQVILCLSMGGLSNTRISRVFAETFQAQRRQPDLGRWRSGVYWLINWLKFGRRKLIGLA	failed
MKVLKFGGTSVGDAERIRSVARLITSVKGRKIIVLSAMAGTTNSLVEIASHLVKRNVAQAKEVVQVLREKYHREINALYKRPDTLSAAKKAVDSLLDSLGHMCDVEGFTLFEEKRVLIL	failed
NRLPDAVVTVYPTFNSLQMLAHALRMPYHDMRIVSLTGRPWHEFDRALIERAEKIGILTDHEHTPSAIAMRMLDYGYEDYTMSVGTRMGNPQEQCLDTFSLREAADRDFERPNCVILSATRPFVCSRAPLGLSESAFMPLNGRTKMITKMPFRLVSLSCLELHRASSFWDIGFCTGSVSIEAKLNFPHLHITAFEIRPEGAELMPVNSRRFGAPGIAYRIGDFMEEDISSLAPPDAVFIGGHGGRLVEMIAKVHSVMTKGGLLVFNSVSEESRHLFLTGIEACGMELLSSIRLTADGNNPIDILQARKKE	not failed
MQEEFMKKNSIIAGLFVFCITTAGIGYTVYNSVYSDRQKHRINETAKLDSAKAPNELKDGEYTASAEGYEGPITVKVVIKEGKIFSVEVLSHNETPEYYEMAKKILQTIVEKNTFNVDSISGATVTSDAIKVAVYKALVQAGAKTSDVAEGLEKENEELRDKEKAKLLAKQSSAVAGKVGFNRNNLKDGTFIGVGRGYNGLIKVSISIKNGVIYDARVISHSDDYPYFTWASSVLNKVISGSTNIDTVSGATVSSRGILNAVKDALRKASNGNNSLDINSPDETEQNIPRQNRREIEQIKKYFKGLKDGVYFGKSNGYYTNSIEVKVTVKDGKIAKIELTKNDDDESYFDNKKAGILGERIISNQSTNIDTISGATTSSKGFINAVVNALEKAVDSNGSDADKYIYSPKTIIANVGETIGLQKIRDALEKLPEDVQINIKNNADTSSEGKTKIVVELIFKDNSKKIVEIPVLVNSKVDGSYKFLSAEEVKNLDKNVNYPDGVYYGDSYGFVSNKPIPVKVTIKNNKIENVELVKEELNRLKGVTSPGNVDDGGIFQEKFYTIIDRIKNMQKFESLIYKFEVLRDATSKVMEEARGKEQTVEVYRAALDKVIGKHNFGKWGLSIDESHLKGERNIHDRIFSLLKVYVKEELGYDGSDYDAVSGATFTATGTATSIKNALLKAKNFDFYDMRVDDSNFKTSYKEGDKLDLKDLKVTIYKKNNQKITVSYSDFGKYGLKVVDEYNKELKDGLVLNKENLGYNVTDGLRLKVVHEESKSFKFLNTILISKSTTKNFEISGIKIKAKDGSEWYDTKGYNTTDFIQNLTVSKEVAEKLNNKEIEFKIIAKDKKSSEEIEIPLRQAQNKTLIADFVSGEYTLDVIEKYKGVLFNNTFRIKTKVEGKIPKAFLYKETPETLIISKGTEITESKIRSVLKNLPDKTDISVLRGVDVNKVNETVLQKLLIKLKFDDGSEKEIEIDVIVKEKVISMADKYVYKPKDLITIKGKEVELSHLKNHLDDLPEGTKIEIIEKANVSEVNETGTLMKVSLEFTDKSTKDISINVVVKDTAPNKAEEFKILYPEIKNEIVNVVVKDPKYGNMKNFAETVKWGAFSDFAINRDLKLKSRSADISRIEVLKEPDRSKLGDQKGKIRLSFNDGSKLELEISVKIVPYPVYKIFRLTSNKTQYRLEDKFNLNDLKVTLFISNKLENESDWDTTGTPVLNIPYSDFYLFGIKVVDLDSKKEIENNSIISTLIKNKKLSVGAYCENLIQKNNYESGKKLVEIFNIKITNIDEWKESKKNIVEIKDEKNSKKADDSNKTGKVMASKKEIKNVDNLDNTSEKNKTIESENTTKDKVQRKDSDSGGKLSDDSSEKQNLKTNEKED	failed
SEVRWCATSDPEQHKCGNMSEAFREAGIQPSLLCVRGTSADHCVQLIAAQEADAITLDGGAIYEAGKEHGLKPVVGEVYDQEVGTSYYAVAVVRRSSHVTIDTLKGVKSCHTGINRTVGWNVPVGYLVESGRLSVMGCDVLKAVSDYFGGSCVPGAGETSYSESLCRLCRGDSSGEGVCDKSPLERYYDYSGAFRCLAEGAGDVAFVKHSTVLENTDGKTLPSWGQALLSQDFELLCRDGSRADVTEWRQCHLARVPAHAVVVRADTDGGLIFRLLNEGQRLFSHEGSSFQMFSSEAYGQKDLLFKDSTSELVPIATQTYEAWLGHEYLHAMKGLLCDPNRLPPYLRWCVLSTPEIQKCGDMAVAFRRQRLKPEIQCVSAKSPQHCMERIQAEQVDAVTLSGEDIYTAGKKYGLVPAAGEHYAPEDSSNSYYVVAVVRRDSSHAFTLDELRGKRSCHAGFGSPAGWDVPVGALIQRGFIRPKDCDVLTAVSEFFNASCVPVNNPKNYPSSLCALCVGDEQGRNKCVGNSQERYYGYRGAFRCLVENAGDVAFVRHTTVFDNTNGHNSEPWAAELRSEDYELLCPNGARAEVSQFAACNLAQIPPHAVMVRPDTNIFTVYGLLDKAQDLFGDDHNKNGFKMFDSSNYHGQDLLFKDATVRAVPVGEKTTYRGWLGLDYVAALEGMSSQQC	not failed
MKLTIPTWLTLLRIVMIPVLVVVFYLPYTWTNFASAGVFALAAITDWLDGWVARRYHQYSAFGAFLDPVADKLMVAVALFLIVQGHPTPWMAFWAAVIVGREIAVSALREWMAEIGQRAKVRVAAIGKIKTTAQMVALLCLLYSVTPGQMPTHEIWLGNLIFRAGYWTLAIAALLTLWSGFQYLQAAWPSLRADEKAAISNKPKKIESNS	failed
MSNENKTIHDFELNLICDFFSNMERQGPGSPEVTLKALSFIDNLTEKSLIADIGCGTGGQTMVLAGHVTGQVTGLDFLSGFIDIFNRNARQSGLQNRVTGIVGSMDDLPFRNEELDLIWSEGAIYNIGFERGLNEWRKYLKKGGYLAVSECSWFTDERPAEINDFWMDAYPEIDTIPNQVAKIHKAGYLPVATFILPENCWTDHYFTPKVAAQKIFLTKYAGNKIAEEFSMLQSIEEELYHKYKEYYGYTFFIAKKIRLLEHHHHHH	not failed
